Source: US20170267768A1 (University of California, published 2017)

How the values were obtained:
[1] = molecular target: T1, murine EphA2 on CT-26 cells (mouse, UniProt Q03145 26-977); experiment: CLIA: scFv-decorated fluorescent NTA(Ni) liposomes on CT-26 cells, FACS
T1 construct: whole, on cells
Description: The concentration of liposomal phospholipid was then determined after acid digestion using spectrophotometric phosphomolybdate method. Prior to incubation with cells the liposomes were diluted to 0.4 mM phospholipid in Hank's Balanced Salt Solution (HBSS), and NiSO₄ was added to 0.1 mM. The hexahistidine scFvs were diluted into cell culture medium (see below) to the concentration of 25 μg/mL of scFv and mixed with equal volume of the liposome solution (“fluorescent NTA-liposome/scFv mixture”).
By measuring fluorescence of the cells prior to and after incubation/wash with imidazole, which disrupts His6/Ni complexes and thereby releases and removes external (but not internalized) histidine-tagged scFv, the percentage of Ab internalized is quantitated. The test cells (human cancer cell lines OVCAR-3 and U-251 and the murine cancer cell line CT-26) were grown in the adherent state in […] cell culture medium supplemented with 10% FBS, 1× penicillin/streptomycin, and L-glutamine, to 90% confluence and harvested using 0.25% trypsin-EDTA. […] The relative amounts of cell-associated liposomes were evaluated by FACS (Cy5 fluorescence channel). The “binding” amount included both cell surface-bound and internalized liposomes and was proportional to cell fluorescence without imidazole wash. […]

[2] = molecular target: T2, His6-tagged recombinant human EphA2 protein (human, UniProt P29317 25-534); experiment: BLI (Octet Red 96); His6-EphA2 on anti-His sensors; scFv-PEG-DSPE conjugate at 2.5 ug/ml after thermal stress
T2 construct: also called his-tagged recombinant, human EphA2; human EphA2 with c-terminal His6
T2 sequence (P29317 25-534 limits assumed): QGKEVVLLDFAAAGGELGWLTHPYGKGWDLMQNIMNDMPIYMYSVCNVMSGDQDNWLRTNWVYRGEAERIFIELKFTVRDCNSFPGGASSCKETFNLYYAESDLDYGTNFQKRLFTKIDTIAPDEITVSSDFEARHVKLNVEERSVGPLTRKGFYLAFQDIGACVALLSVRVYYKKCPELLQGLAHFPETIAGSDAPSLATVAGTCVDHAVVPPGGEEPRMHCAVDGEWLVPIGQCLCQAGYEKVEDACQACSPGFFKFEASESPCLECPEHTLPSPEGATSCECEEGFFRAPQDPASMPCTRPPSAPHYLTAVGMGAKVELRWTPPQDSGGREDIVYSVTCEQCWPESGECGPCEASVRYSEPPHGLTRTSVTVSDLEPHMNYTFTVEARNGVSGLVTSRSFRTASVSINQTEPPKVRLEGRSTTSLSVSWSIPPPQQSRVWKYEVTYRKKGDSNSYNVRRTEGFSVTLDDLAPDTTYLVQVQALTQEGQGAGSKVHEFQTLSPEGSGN
Source text: (§1) A nucleic acid encoding human EphA2 with c-terminal His6 appended was cloned into expression vector pCEP4 (Invitrogen® # V044-50) and transiently expressed in FreeStyle™ 293 cells (Invitrogen® #K900001) following polyethylenenimine transfection. The His6-tagged recombinant human EphA2 protein was purified from the cell culture medium using Ni-NTA Sepharose™ resin (Quiagen®, USA). Anti-His sensors for the fortéBIO® Octet Red 96 system (fortéBIO®-Pall® #18-5116) were coated with his-tagged recombinant, human EphA2 at concentration of 10 μg/ml protein for 300 sec, and a background run was carried out in PBS for 60 sec. For scFv-PEG-DSPE conjugates, the sensors were then incubated with 2.5 μg/ml (Study 1) or 4.0 μg/ml (Study 2) of the conjugate in PBS, pH 7.4, and the slopes of association curves were determined between 3-13 seconds of incubation, corrected for the buffer-only background, and compared across the variants. ScFv-linked liposomes were incubated with the sensors in PBS at 0.025 mM of liposome phospholipid, the slopes of the association curves were determined between 3-20 seconds of incubation, corrected for the buffer-only background, and compared across the variants.
(§2) Results are shown below in Table 6, in which column A gives scFv identifiers; column B indicates percent yield of scFv/lipopolymer linker conjugates; column C gives percent scFv-conjugate (not liposome-bound) EphA2 binding on-rate; column D gives percent scFv-conjugated-liposome EphA2 binding on-rate; and columns E (Study 1) and F (study 2) give percent antigen binding on-rate remaining in the scFv-conjugate (not liposome-bound) following thermal stress.

[3] = molecular target: T2, His6-tagged recombinant human EphA2 …; experiment: BLI (Octet Red 96); His6-EphA2 on anti-His sensors; scFv-PEG-DSPE conjugate at 4.0 ug/ml after thermal stress
Source text: as §1, §2

[4] = molecular target: Staphylococcus aureus Protein A (Staphylococcus aureus, UniProt P38507 37-477); experiment: Protein A binding measured as in Example 1, compared to TS1C
Description: Protein A binding for multiple samples was determined as follows: scFvs expressed by mammalian cells were obtained from cultures by centrifugation at 4000 g for 15 minutes to remove cells. The scFv titer in the supernatant was determined using Fortebio. Protein A binding was assayed using a 96 well Protein A plate (Protein A 96 well protein purification plate (GE Healthcare: Life Sciences, Protein A HP MultiTrap®) which contains Protein A-conjugated resin in wells with porous bottoms, allowing liquid in the wells to be collected from underneath via centrifugation or suction. Each well of the plate was washed with 1×PBS, and supernatant containing 250 μg of protein was loaded into each well. The supernatant is then separated from the Protein A resin using a vacuum manifold (Whatman®) with 10 mbar of pressure and the flow-through from each well separately collected into empty wells of a standard 96 well plate. The wells of the Protein A plate were then washed with 600 μL of 1×PBS (pH 7.6). To elute the resin-bound Ab, 200 μL of 0.1M acetic acid was added to each well and incubated at room temperature for 3-10 minutes. The plate was placed over a second plate to capture eluate and centrifuged at 100×g for 2 minutes, and 20 μL of 1M Tris, pH 8.0 was added to neutralize the Abs in the eluate. To determine the percentage of Protein A binding, the concentration of scFv remaining in the flow-through was compared to the amount of protein (250 ug) loaded originally.
The fold improvement in Protein A binding capacity (as compared to TS1C) was measured as described in Example 1.

[5] = molecular target: T2, His6-tagged recombinant human EphA2 …; experiment: BLI (Octet Red 96); His6-EphA2 on anti-His sensors; slope of association curve of scFv-linked liposomes at 0.025 mM phospholipid; TS1C printed as 100
Source text: as §1, §2

[6] = molecular target: T2, His6-tagged recombinant human EphA2 …; experiment: BLI (Octet Red 96); His6-EphA2 on anti-His sensors; slope of association curve of scFv-PEG-DSPE conjugate; TS1C printed as 100
Source text: as §1, §2

T1 sequence (Q03145 26-977): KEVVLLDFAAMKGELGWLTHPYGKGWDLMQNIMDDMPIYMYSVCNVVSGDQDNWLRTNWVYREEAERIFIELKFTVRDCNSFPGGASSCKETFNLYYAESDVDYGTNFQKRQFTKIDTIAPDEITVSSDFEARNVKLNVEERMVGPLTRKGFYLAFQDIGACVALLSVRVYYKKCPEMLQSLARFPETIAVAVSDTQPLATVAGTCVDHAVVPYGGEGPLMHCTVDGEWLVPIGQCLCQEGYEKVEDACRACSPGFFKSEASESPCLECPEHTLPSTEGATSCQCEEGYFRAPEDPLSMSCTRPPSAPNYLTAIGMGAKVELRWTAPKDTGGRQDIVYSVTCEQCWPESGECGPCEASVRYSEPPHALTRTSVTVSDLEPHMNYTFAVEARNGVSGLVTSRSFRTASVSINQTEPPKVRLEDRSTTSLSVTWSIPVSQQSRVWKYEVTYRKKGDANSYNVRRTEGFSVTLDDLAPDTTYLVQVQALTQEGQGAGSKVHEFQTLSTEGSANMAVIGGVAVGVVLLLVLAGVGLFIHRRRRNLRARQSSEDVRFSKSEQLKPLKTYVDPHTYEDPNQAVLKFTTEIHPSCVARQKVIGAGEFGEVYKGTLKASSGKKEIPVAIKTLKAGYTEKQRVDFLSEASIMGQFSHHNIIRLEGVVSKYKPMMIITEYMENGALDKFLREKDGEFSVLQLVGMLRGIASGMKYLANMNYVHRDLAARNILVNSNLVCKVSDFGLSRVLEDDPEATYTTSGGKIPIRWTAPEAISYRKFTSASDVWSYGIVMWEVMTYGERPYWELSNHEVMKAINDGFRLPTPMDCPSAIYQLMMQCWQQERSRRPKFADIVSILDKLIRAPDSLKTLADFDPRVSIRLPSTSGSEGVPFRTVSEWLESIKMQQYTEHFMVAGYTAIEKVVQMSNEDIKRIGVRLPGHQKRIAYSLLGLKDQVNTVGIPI

Binder | binding result [1] | percent antigen binding on-rate remaining in the scFv-conjugate following thermal stress (Study 1) [2] | percent antigen binding on-rate remaining in the scFv-conjugate following thermal stress (Study 2) [3] | Fold Improvement in Protein A Binding Capacity [4] | percent scFv-conjugated-liposome EphA2 binding on-rate [5] | percent scFv-conjugate (not liposome-bound) EphA2 binding on-rate [6]
scFv-12 (scFv) scFv: QVQLVQSGGGLVQPGGSLRLSCAASGFTFSSYAMHWVRQAPGKGLEWVAGISHPGDNTYYADSVKGRFTISRDNSKNTLYLQMNSLRAEDTAVYYCARASVGATGPFDIWGQGTLVTVSSASTGGGGSGGGGSGGGGSGGGGSSSELTQPPSVSVAPGQTVTITCQGDSLRSYYASWYQQKPGTAPKLLIYGENNRPSGVPDRFSGSSSGTSASLTITGAQAEDEADYYCNSRDSSGTHLTVFGGGTKLTVLG | no binding | – | – | – | – | –
scFv-3C (scFv, also called clone 3) scFv: QVQLVQSGGGLVQPGGSLRLSCAASGFTFSSYAMHWVRQAPGKGLEWVTVISPDGHNTYYADSVKGRFTISRDNSKNTLYLQMNSLRAEDTAVYYCARASVGATGPFDIWGQGTLVTVSSASTGGGGSGGGGSGGGGSGGGGSSSELTQPPSVSVAPGQTVTITCQGDSLRSYYASWYQQKPGTAPKLLIYGENNRPSGVPDRFSGSSSGTSASLTITGAQAEDEADYYCNSRDSSGTHLTVFGGGTKLTVLGGGSGGC | – | 56.5% | 46.9% | 6 fold | 119% | 112%
scFv-2C (scFv, also called clone 2) scFv: QVQLVQSGGGLVQPGGSLRLSCAASGFTFSSYAMHWVRQAPGKGLEWVSVISPAGRNKYYADSVKGRFTISRDNSKNTLYLQMNSLRAEDTAVYYCARASVGATGPFDIWGQGTLVTVSSASTGGGGSGGGGSGGGGSGGGGSSSELTQPPSVSVAPGQTVTITCQGDSLRSYYASWYQQKPGTAPKLLIYGENNRPSGVPDRFSGSSSGTSASLTITGAQAEDEADYYCNSRDSSGTHLTVFGGGTKLTVLGGGSGGC | – | 44.6% | 26.9% | 5.5 fold | 117% | 105%
scFv-4C (scFv, also called clone 4) scFv: QVQLVQSGGGLVQPGGSLRLSCAASGFTFSSYAMHWVRQAPGKGLEWVTVISPHGRNKYYADSVKGRFTISRDNSKNTLYLQMNSLRAEDTAVYYCARASVGATGPFDIWGQGTLVTVSSASTGGGGSGGGGSGGGGSGGGGSSSELTQPPSVSVAPGQTVTITCQGDSLRSYYASWYQQKPGTAPKLLIYGENNRPSGVPDRFSGSSSGTSASLTITGAQAEDEADYYCNSRDSSGTHLTVFGGGTKLTVLGGGSGGC | – | 8.6% | 5.6% | 5.8 fold | 118% | 97.3%
scFv-10C (scFv, also called clone 10) scFv: QVQLVQSGGGLVQPGGSLRLSCAASGFTFSSYAMHWVRQAPGKGLEWVSAISPPGHNTYYADSVKGRFTISRDNSKNTLYLQMNSLRAEDTAVYYCARASVGATGPFDIWGQGTLVTVSSASTGGGGSGGGGSGGGGSGGGGSSSELTQPPSVSVAPGQTVTITCQGDSLRSYYASWYQQKPGTAPKLLIYGENNRPSGVPDRFSGSSSGTSASLTITGAQAEDEADYYCNSRDSSGTHLTVFGGGTKLTVLGGGSGGC | – | 88.9% | 98.8% | 12.3 fold | 110% | 104%
scFv-7C (scFv, also called clone 7) scFv: QVQLVQSGGGLVQPGGSLRLSCAASGFTFSSYAMHWVRQAPGKGLEWVSVISPAGPNTYYADSVKGRFTISRDNSKNTLYLQMNSLRAEDTAVYYCARASVGATGPFDIWGQGTLVTVSSASTGGGGSGGGGSGGGGSGGGGSSSELTQPPSVSVAPGQTVTITCQGDSLRSYYASWYQQKPGTAPKLLIYGENNRPSGVPDRFSGSSSGTSASLTITGAQAEDEADYYCNSRDSSGTHLTVFGGGTKLTVLGGGSGGC | – | 5.8% | 4.8% | 10.3 fold | 119% | 110%
scFv-11C (scFv, also called clone 11) scFv: QVQLVQSGGGLVQPGGSLRLSCAASGFTFSSYAMHWVRQAPGKGLEWVAVISHHGSNTYYADSVKGRFTISRDNSKNTLYLQMNSLRAEDTAVYYCARASVGATGPFDIWGQGTLVTVSSASTGGGGSGGGGSGGGGSGGGGSSSELTQPPSVSVAPGQTVTITCQGDSLRSYYASWYQQKPGTAPKLLIYGENNRPSGVPDRFSGSSSGTSASLTITGAQAEDEADYYCNSRDSSGTHLTVFGGGTKLTVLGGGSGGC | – | 1.6% | -0.09% | 8.5 fold | 120% | 109%
